Assay results reported in PMC2929534 (Biochemistry, 2010).
Like-named read-outs stand apart in the source and are kept apart here.

B1: AsiA protein (wild type) (natural protein, bacteriophage T4, UniProt P32267 1-90, looked up)
chain: MNKNIDTVREIITVASILIKFSREDIVENRANFIAFLNEIGVTHEGRKLNQNSFRKIVSELTQEDKKTLIDEFNEGFEGVYRYLEMYTNK
B2: AsiA V14A mutant (natural protein, bacteriophage T4, UniProt P32267 1-90, looked up)
chain: MNKNIDTVREIITAASILIKFSREDIVENRANFIAFLNEIGVTHEGRKLNQNSFRKIVSELTQEDKKTLIDEFNEGFEGVYRYLEMYTNK
B3: AsiA E39A mutant (natural protein, bacteriophage T4, UniProt P32267 1-90, looked up)
chain: MNKNIDTVREIITVASILIKFSREDIVENRANFIAFLNAIGVTHEGRKLNQNSFRKIVSELTQEDKKTLIDEFNEGFEGVYRYLEMYTNK
B4: AsiA I40A mutant (natural protein, bacteriophage T4, UniProt P32267 1-90, looked up)
chain: MNKNIDTVREIITVASILIKFSREDIVENRANFIAFLNEAGVTHEGRKLNQNSFRKIVSELTQEDKKTLIDEFNEGFEGVYRYLEMYTNK
B5: AsiA F21A mutant (natural protein, bacteriophage T4, UniProt P32267 1-90, looked up)
chain: MNKNIDTVREIITVASILIKASREDIVENRANFIAFLNEIGVTHEGRKLNQNSFRKIVSELTQEDKKTLIDEFNEGFEGVYRYLEMYTNK
B6: AsiA K20A mutant (natural protein, bacteriophage T4, UniProt P32267 1-90, looked up)
chain: MNKNIDTVREIITVASILIAFSREDIVENRANFIAFLNEIGVTHEGRKLNQNSFRKIVSELTQEDKKTLIDEFNEGFEGVYRYLEMYTNK
B7: AsiA L18A mutant (natural protein, bacteriophage T4, UniProt P32267 1-90, looked up)
chain: MNKNIDTVREIITVASIAIKFSREDIVENRANFIAFLNEIGVTHEGRKLNQNSFRKIVSELTQEDKKTLIDEFNEGFEGVYRYLEMYTNK
B8: AsiA I17A/I40A double mutant (natural protein, bacteriophage T4, UniProt P32267 1-90, looked up)
chain: MNKNIDTVREIITVASALIKFSREDIVENRANFIAFLNEAGVTHEGRKLNQNSFRKIVSELTQEDKKTLIDEFNEGFEGVYRYLEMYTNK
B9: AsiA I17A mutant (natural protein, bacteriophage T4, UniProt P32267 1-90, looked up)
chain: MNKNIDTVREIITVASALIKFSREDIVENRANFIAFLNEIGVTHEGRKLNQNSFRKIVSELTQEDKKTLIDEFNEGFEGVYRYLEMYTNK

Assays:
[1] = target: AsiA M1A mutant (bacteriophage T4) (UniProt P32267); assay: AUC
[2] = target: AsiA M1A mutant (bacteriophage T4) (UniProt P32267); assay: dynamic light scattering
dynamic light scattering = target: the molecule itself; assay: dynamic light scattering
AUC [3] = target: the molecule itself; assay: AUC
[4] = target: σ^70 subunit of Escherichia coli RNA polymerase (E. coli, UniProt P00579 1-613); assay: native gel or EMSA
AUC [5] = target: the molecule itself; assay: AUC; remark: listed apart in the source

Molecule | stoichiometry N (dynamic light scattering) | Ka (AUC [3]) [M⁻¹] | Kd (AUC [3]) [nM] | also measured
AsiA M1A mutant (from UniProt P32267 1-90) (natural protein) |  |  |  | Ka [1]: 3.8e+06 M⁻¹; Kd [1]: 260 nM; stoichiometry N [1]: 2; stoichiometry N [2]: 2
B1 | 2 | 2.8e+06 | 350 | 
B2 | 2 | 820000 | 1200 | 
B3 | 2 | 5.7e+06 | 180 | 
B4 | 2 | 360000 | 2700 | 
B5 | 2 | 4.7e+06 | 210 | 
B6 | 2 | 2.1e+06 | 480 | 
B7 |  |  |  | binding result [4]: binds
B8 |  |  |  | Ka (AUC [5]): 1400 M⁻¹; Kd (AUC [5]): 694000 nM
B9 | 2 | 200000 | 4900 | 
